B1: nanobody H58 (VHH)
VHH: QLQLVESGGGLADDGGSLRLSCAASGFALRYWTVGWFRQAPGKEREGLACISRSGNITSYTDSAKGRFTISRDNAKNTVYLQMNSLKPEDTAVYYCTAVRRCFLTTWTPINPYYGMHSWGKGTLVTVSS
notes: not shown: His6, C-terminal, kept
B2: nanobody H93 (VHH)
VHH: QLQLVESGGGLVQPGGSLRLSCVVSGGTLDYHAIAWFRQAPGKVREGVLCISSSGGSTNWLEAVKGRFTISRDNAKNTVYLQMNSLKPEDTAVYYCAAVRRCFLTTWTPINPYYGMHSWGKGTLVTVSS
notes: as for B1
B3: nanobody H23 (VHH)
VHH: EVQVVESGGGWVQAGGSRRLSCAASGFTLDSYAVGWFRQAPGKEREGVSCISGISSSGGTTNYVDSVKGRFTISRDNAKNTVYLQMNSLKPEDTAVYYCAAVRRCFLTTWTPINPYYGMHSWGKGTLVTVSS
notes: as for B1
B4: nanobody H84 (VHH)
VHH: B3 VHH with E1Q, V2L, V4L, R18L, V82A, Y83E, A100T
notes: as for B1
B5: nanobody H85 (VHH)
VHH: QLQLVESGGGLVQAGGSLRLSCAASGSTISRHAMGWYRQAPGMQRELVASISSGGTTNYADSVKGRFTISRDSAKNMVYLHMTSLKPEDTAVYYCATKPVHMLTRRLHLGGCTYGMDYWGKGTLVTVSS
notes: as for B1
B6: nanobody H177 (VHH)
VHH: QVQLVESGGGRVPPGGSLRLSCVASGFYWDYFVISWFRQAPGKEREWVSCIRSATDSANYADFVKGRFTISRENGKSTVYLQMNSLTPEDTAVYRCAVAYGTSWCRNPADMNYWGKGTLVTVSS
notes: as for B1
B7: nanobody H68 (VHH)
VHH: EVQVVESGGGLVQPGGSLRLSCVGSSFTLNAIGWFRQAPGKEREWVSCTTGDGSTNYPDSVKGRFTISRDNAKNTVYLQMNSLKPEDTAVYYCTAVRRCFLTTWTPINPYYGMHSWGKGTLVTVSS
notes: as for B1
B8: nanobody H180 (VHH)
VHH: QVQLVESGGGLVQAGGSLKLSCAASGLRSDGTAIGWFRQAPGKEREWVSCIRRRDGGTYYADSVESRFTISRDVAKNTVHLQMNSLKPEDTAVYYCASRDDSWCTTRSYEYSYWGQGTPVTVSS
notes: as for B1
B9: nanobody H49 (VHH)
VHH: QLQLVESGGGSVQAGGSLRLACTTSGRTFNKYAMAWFRQPPGQEREFIASITWIGGSTYYANSAKGRFTISRDNAKNTAYLQMNSLKPDDTAVYQCQLRKGILSYWGQGTQVTVSS
notes: as for B1
B10: nanobody H8 (VHH)
VHH: QVQLVESGGGLVQTGGSLRLSCAVSRFTLDYGATGWFRQAPGKEREGVSCIGRDDGSTYYAESVKGRFTMSRDKAKNTVYLEMNSLKPEDTAVYYCAADYFARCAANLPNRYLYWGQGTQVTVSS
notes: as for B1
B11: nanobody H88 (VHH)
VHH: QVQLVESGGGLLQPGGSLRLSCAASGFTLDNYAIGWFRQAPGKEREWVSCISVSDGRTYYADSVQGRFTTSRDNAKNTVYLHLNSLKPEDTAVYSCASRRGRWCTTRSYEYEYWGQGTQVTVSS
notes: as for B1
B12: H147 (VHH)
VHH: QVQLVESGGAWVQPGGSLRLSCVASGFTLDYYAVGWFRQAPGKEREGVSCISRRGGESTNYASSVKGRFTISRDSVKNTVYLQMNSLKPEDTAVYYCAAVLRCFSTTWAPINPYYGMHSWGKGTLVTVSS
B13: H43 (VHH)
VHH: EVQVVESGGDLVQAGASLRLSCAAPEPVFISSFGNKYAFGWFRQAPGKQRELVASISGIGNTNYADSVNGRFTISRDNAKNSVYLQMNSLKPEDTAVYYCTAVRRCFLTTWTPINPYYGMHSWGKGTLVTVSS
B14: H15 (VHH)
VHH: QLQLVESGGALAQPGGSLTLSCAVRGATLDSYAIAWFREAPGEEREGVACIGGSEESTFMKYSLKDRVSLSTNRAEKMVYLHMNSLQPEDTAAYYCAASASGSRSVLAGCPSRTMGFWGKGTLVTVSS
B15: H45 (VHH)
VHH: QLQLVESGGGSVQSGGSLRLSCLATGRKLDDLVIKWFRQPPGKLREGVACISGSGRTIKYADSVKGRFIISNEYGKNTVYLQMNSLTPDDTAVYYCAAEQILCDRKWYPLGNDYYGQGTQVTVSS
B16: H36 (VHH)
VHH: QVQLVESGGALVQPGGSLTLSCSGHGITLRHYTVGWFREAPGKRRQWISSIRSSDERTNYAASVKGRFIISRNDGENTVKLQLNDVGPEDMATYRCAAGADTIKVFSGWAADYMFWGQGTQVTVSS
B17: H184 (VHH)
VHH: QLQLVESGGGLVQPGGSLTLSCTASVDYYALGWFRQTPEKQREGVSCIGISGQRTFYADSVKGRFNITRDNTRKTAFLQMKDLKPEDTGVYFCAAERGRTVDAMCLKARPDYWGQGTQVTVSS
B18: H6 (VHH)
VHH: QVQLVESGGGLVEAGGSLRLSCTTSGGTLSPYTMGWFRQAPGKGREFVSGISCLGWHSYEGDSVKGRFTISRDNAKNTLYLQMNSLKPEDTAVYYCAASSGCSSTMIDADFTSWGQGTQVTVSS
B19: H27 (VHH)
VHH: EVQVVESGGGLVQAGDSLTLSCVAVQGERFFSQYTVGWFRQAPGRERTLVATINYSRETYYSDSAKGRFTISRDNAKNTVYLQMNSLNPEDTATYYCAATRHARISTTITEDRYDYWGQGTQVTVSS
B20: H102 (VHH)
VHH: QVQLVESGGGLVQPGGSLRLSCTGSGLSLEDYAIGWFRQAPGKDRNWVACIPHKREPLYRDYVRGRFTISRNNTANTVDLQMNSLKPEDTAVYYCTAVRRCFLTTWTPINPYYGMHSWGKGTLVTVSS

Positions count from the first letter of the chain named.

This note sets out measurements from publication PMC12052392 (PLOS Pathogens, 2025).

The target of the first assay is S2 (T1076-Q1208) protein as coated in ELISA (devoid of the His tag) (SARS-CoV-2, MN908947.3, UniProt P0DTC2). In words: ELISA; […], room temperature; […]. As to conditions: both partners purified. In general terms: An ELISA detects its analyte on a solid surface through an enzyme-linked reagent.
Regarding B1, the binding result is reported as “binds”.

For the molecule B2, the binding result is “binds”.

With B3, the binding result is “binds”.

In the case of B4, the binding result was “binds”.

Regarding B5, the binding result is given as “binds”.

On to B6, for which the binding result is “binds”.

Turning to B7, the binding result was “binds”.

B8: the binding result is “binds”.

B9: the binding result is recorded as “binds”.

On to B10, for which the binding result is reported as “binds”.

Consider B11, for which the binding result is on record as “binds”.

The next assay addresses SARS-CoV-2 spike (S) protein, full-length, expressed on the surface of HEK-293T cells (SARS-CoV-2 prototype (MN908947.3), UniProt P0DTC2). In words: flow cytometry on cells. As to conditions: one partner purified. (A flow cytometer gives signals particle by particle.)
As for B1, the binding result is “binds”.

As for B2, the binding result is reported as “binds”.

With B6, the binding result was “binds”.

Turning to B7, the binding result is “binds”.

With B8, the binding result is “binds”.

With B9, the binding result is “binds”.

The target in another assay is SARS-CoV-2 S2 (T1076-Q1208) antigen, trimeric S2 fusion-core-based antigen (SARS-CoV-2 prototype (MN908947.3), UniProt P0DTC2, biotin (Biotinylation Kit)).
Assay: not given
Conditions: not given
B12: the binding result was “binds”.

For B13, the binding result is given as “binds”.

Turning to B14, the binding result is listed as “binds”.

For B15, the binding result is listed as “binds”.

Regarding B16, the binding result is given as “binds”.

In the case of B17, the binding result was “binds”.

Turning to B18, the binding result is reported as “binds”.

For the molecule B19, the binding result is given as “binds”.

Regarding B20, the binding result is recorded as “binds”.
